In patent publication US11458141B2, “Aryl hydrocarbon receptor (AhR) agonists for the prevention and treatment of inflammatory disorders” (The Johns Hopkins University, priority 2017, dated 2022):

Target: T1, AHR (Mus musculus, UniProt P30561)
T1 construct: from tissue; host or cells: mouse intestine (ileum / intestinal mucosa), in vivo
T1 sequence (P30561 10-848): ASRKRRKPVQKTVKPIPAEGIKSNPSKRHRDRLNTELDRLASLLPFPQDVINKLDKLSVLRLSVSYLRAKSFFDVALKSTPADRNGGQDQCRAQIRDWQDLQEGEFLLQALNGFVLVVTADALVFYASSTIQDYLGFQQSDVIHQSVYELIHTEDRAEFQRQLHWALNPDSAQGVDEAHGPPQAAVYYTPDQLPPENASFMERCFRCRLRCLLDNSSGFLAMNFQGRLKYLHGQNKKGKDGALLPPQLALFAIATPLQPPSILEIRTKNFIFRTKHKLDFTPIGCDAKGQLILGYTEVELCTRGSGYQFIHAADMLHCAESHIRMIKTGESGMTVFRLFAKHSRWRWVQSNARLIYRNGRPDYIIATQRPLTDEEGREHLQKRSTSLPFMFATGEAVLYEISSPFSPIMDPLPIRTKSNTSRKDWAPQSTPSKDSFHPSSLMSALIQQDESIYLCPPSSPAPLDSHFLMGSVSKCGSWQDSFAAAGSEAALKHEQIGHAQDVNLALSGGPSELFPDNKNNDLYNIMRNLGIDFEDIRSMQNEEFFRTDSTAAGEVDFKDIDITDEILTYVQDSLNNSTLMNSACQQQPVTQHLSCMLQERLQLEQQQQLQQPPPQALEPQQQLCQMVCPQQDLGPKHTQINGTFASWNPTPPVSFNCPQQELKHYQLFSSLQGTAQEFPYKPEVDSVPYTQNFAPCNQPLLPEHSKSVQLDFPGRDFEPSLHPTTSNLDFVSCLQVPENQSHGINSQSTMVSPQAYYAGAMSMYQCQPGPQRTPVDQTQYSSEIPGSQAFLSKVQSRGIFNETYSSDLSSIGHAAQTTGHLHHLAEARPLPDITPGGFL
Test: AHR activation in mice by breast milk components (preliminary data)
Type: in vivo
Description: iii. Other effects of breast milk. Although it is shown that breast milk inhibits TLR4 signaling in part via AHR activation (FIG. 15), potential AHR ligands within breast milk have not yet been thoroughly examined.

AHR activation: can activate AHR in mice
B1: epidermal growth factor (EGF): molecule enriched within breast milk shown to prevent NEC (protein, UniProt P01133 23-1207, looked up)
Pro-epidermal growth factor: PQHWSCPEGTLAGNGNSTCVGPAPFLIFSHGNSIFRIDTEGTNYEQLVVDAGVSVIMDFHYNEKRIYWVDLERQLLQRVFLNGSRQERVCNIEKNVSGMAINWINEEVIWSNQQEGIITVTDMKGNNSHILLSALKYPANVAVDPVERFIFWSSEVAGSLYRADLDGVGVKALLETSEKITAVSLDVLDKRLFWIQYNREGSNSLICSCDYDGGSVHISKHPTQHNLFAMSLFGDRIFYSTWKMKTIWIANKHTGKDMVRINLHSSFVPLGELKVVHPLAQPKAEDDTWEPEQKLCKLRKGNCSSTVCGQDLQSHLCMCAEGYALSRDRKYCEDVNECAFWNHGCTLGCKNTPGSYYCTCPVGFVLLPDGKRCHQLVSCPRNVSECSHDCVLTSEGPLCFCPEGSVLERDGKTCSGCSSPDNGGCSQLCVPLSPVSWECDCFPGYDLQLDEKSCAASGPQPFLLFANSQDIRHMHFDGTDYGTLLSQQMGMVYALDHDPVENKIYFAHTALKWIERANMDGSQRERLIEEGVDVPEGLAVDWIGRRFYWTDRGKSLIGRSDLNGKRSKIITKENISQPRGIAVHPMAKRLFWTDTGINPRIESSSLQGLGRLVIASSDLIWPSGITIDFLTDKLYWCDAKQSVIEMANLDGSKRRRLTQNDVGHPFAVAVFEDYVWFSDWAMPSVMRVNKRTGKDRVRLQGSMLKPSSLVVVHPLAKPGADPCLYQNGGCEHICKKRLGTAWCSCREGFMKASDGKTCLALDGHQLLAGGEVDLKNQVTPLDILSKTRVSEDNITESQHMLVAEIMVSDQDDCAPVGCSMYARCISEGEDATCQCLKGFAGDGKLCSDIDECEMGVPVCPPASSKCINTEGGYVCRCSEGYQGDGIHCLDIDECQLGEHSCGENASCTNTEGGYTCMCAGRLSEPGLICPDSTPPPHLREDDHHYSVRNSDSECPLSHDGYCLHDGVCMYIEALDKYACNCVVGYIGERCQYRDLKWWELRHAGHGQQQKVIVVAVCVVVLVMLLLLSLWGAHYYRTQKLLSKNPKNPYEESSRDVRSRRPADTEDGMSSCPQPWFVVIKEHQDLKNGGQPVAGEDGQAADGSMQPTSWRQEPQLCGMGTEQGCWIPVSSDKGSCPQVMERSFHMPSYGTQTLEGGVEKPHSLLSANPLWQQRALDPPHQMELTQ
modifications: Pro-epidermal growth factor
